Experimental data published in the DeepSol protein solubility set.

Assay: soluble on expression in E. coli; label from the status in PepcDB or PDB records
In the case of “MGSDKIHHHHHHMSSLQISQGTFRLSDTKTLKIDHLSVAAGESWAFVGSNGSGKSALARALAGDLPLLSGQRESHFSRVTRLSFEQLQKLVSDEWQRNNTDLLSPGEEDTGRTTAEIIQDEVKDPARCARLAEQFGISALLDRRFKYLSTGETRKTLLCQALMTDPQLLILDEPFDGLDVNSRQQLAALLADLHSAGITLVLVLNRFDEIPEFVQFAGVLADCTLSETGEKSSLLQQALVAQLAHSEKLDGITLPEPDVPPARHALADSAPRIVLNDGVVSYNDRPVINHLSWTVNPGEHWQIVGPNGAGKSTLLSLVTGDHPQGYSNDLTLFGRRRGSGETIWDIKKHIGYVSSSLHLDYRVSTNVRNVILSGYFDSIGIYQAVSDKQHKLVQQWLDILGIDKRTADAPFHSLSWGQQRLALIVRALVKHPTLLILDEPLQGLDPLNRQLVRRFVDVLIGEGATQLLFVSHHAEDAPDCITHRLAFVPSGDGYTYQLGPVA”, the “soluble on expression in E. coli” value is reported as “not soluble”.
With “MGSDKIHHHHHHMSSRAFSTVAVTDAFFTLVAPVAKNSARIVIIVNSVSTGKNHPQMVALQQTVQQLGYAHVQLLDVLTDDLAALNTATVIILNGGYEFLLLKNLRETHVLERLRTLALAGKPIYGISAGAILLGPDLDLYVYLYPEDNTEQLASTTAINATTIRIYPHYDVHCEVKPQLPQLITDWEHKTGVTVKRLTNNQGLLVHGSQIQMIDSDS” the “soluble on expression in E. coli” value was “not soluble”.
In the case of “MGSDKIHHHHHHMSSTPSNQNIIPIIKKESIVSLFEKGIRQDGRKLTDYRPLSITLDYAKKADGSALVKLGTTMVLAGTKLEIDKPYEDTPNQGNLIVNVELLPLAYETFEPGPPDENAIELARVVDRSLRDSKALDLTKLVIEPGKSVWTVWLDVYVLDYGGNVLDACTLASVAALYNTKVYKVEQHSNGISVNKNEVVGKLPLNYPVVTISVAKVDKYLVVDPDLDEESIMDAKISFSYTPDLKIVGIQKSGKGSMSLQDIDQAENTARSTAVKLLEELKKHLGI”, the “soluble on expression in E. coli” value is reported as “not soluble”.
For “MGSDKIHHHHHHMSTALFHHHSTLQDQLVAIHAALRASLPDIDRIAVAIYDTKTDALHTFIHSSDGRHPLDSYATTLTGVPSLAALATSGRIRVLNDLSPLALTGAHHTQVIAKAYRSSLTVPFYKGKALSGFLFFNSQQPDYFTSRRIDTLALAAEMICSRVIDTVISVEMLTSTIQIAKDISHFRDEETGAHLDRVANYARLIAETMGKEPSALPPGRHPVLDDEFAQMIFLFAPLHDIGKVAIPDHVLLKPGPLTPEERTIMRTHSDKGLAICRRILENVDFISGTQAAMLCDIVHAHHEAWDGSGYPRGLSGADIPLAAAIVTVADVFDALTSARPYKKPWSTEDAFAYLQEKSGQLFNPACVRAFLAHRDDVLAIRARFRDEVIPEAFQTPQTPQSKADKV”, the “soluble on expression in E. coli” value was “not soluble”.
With “MGSDKIHHHHHHMSTANIAPAIRIGVLGFGGLGQAAAKVLAGKREMKLVAVADQKGYAYAAAGLNFKDCIATYQSQGSVGYLEPVGSLGNNSIQDLIDSSQPVDGYFLALPNLPNDFIPSVARQFIQSGWRGVLVDAIKRTSAVEQLIAMKDELQAAGITYMTGCGATPGLLTAAAALAAQSYAEIHQVEITFGVGIANWEAYRATVREDIGHMPGYTVEAARAMTDAEVEALLDKTNGVLTLQNMEHADDVMLELAGIVERDRVTVGGVVDTRNPKKPLSTNVKVTGRTFEGKISTHTFTLGDETSMAANVCGPAFGYLKAGMQLHQRGIHGIFTAAEIMPQFVK” the “soluble on expression in E. coli” value was “not soluble”.
With “MGSDKIHHHHHHMSTDCLQELENALGRAALVRDEDRALYDVDWRGHLHGRSLAVVCPSRVEDVGETIRIARRHQISIVPQGGNTGLAGGATPDSTGRQLVLCTRRLNRIRGVDLLGNFITVDAGCILQNVQDAAQSHDRLFPLSLAAQGSCTIGGNLATNAGGNAVLRYGNMRELCVGIEAVDAQGRLIGDLKCVRKNNTGYSLRDLLIGSEGTLGIITGAALRLFPRPFAYATALVKCADIDHALQVLGILRAHCADFLSGVEWMSNGSLSNVSKQFLDTRIPPGFDESCLCLVELSGSTPPGLLDDILASALDQAITSGFAADAALASNLAERDAFWALRERLPLAEARCRSLKHDVSLPAGNMSEFVAHLEGYLSSMTLRCAWAGFGHLGDGNLHANVLIPDTMPDALCDCIDEFVYSEVLRLEGSISAEHGIGSRKNDLLHRALDVASLQAMQAVRNALDPHNLFNPGKLLFN” the “soluble on expression in E. coli” value was “not soluble”.
In the case of “MGSDKIHHHHHHMSTPQFGRKVSLIIGQDSGDALDLSELRFRFDVRRGDLQTPNSARVRVYNVSPDTARRAQREFSRLVLQAGYPGNFGIIFDGTIKQVRRGRENQTDTYLDITAADGDSAYNFAVVNTTLAAGSTPSDHVAAACTAMNPYGVTQGYLPSLPSNPLPRGKVMFGMAREFMRWTARTCQTVWSIQDGKAIMVPETSYMPGEIPVITAETGMVGLPEQTQNGIAIKMLLNPSVKIGRLIQIDNASVQQYEYSLNVGQQAQNERIEQQAKLQDDGFYYVMLAEHYGDTRGNDFYTDVICLAADVTVLPDSFRDKAAVPPDNVIKRFG”, the “soluble on expression in E. coli” value is reported as “not soluble”.
With “MGSDKIHHHHHHMSTPSPALFFNTVNAYQRSAAIKAAVELNVFTAISQGIESSQSLAQKCQTSERGMRMLCDYLVIIGFMTKQAEGYRLTSDSAMFLDRQSKFYVGDAIEFLLSPMITNGFNDLTAAVLKGGTAISSEGTLSPEHPVWVQFAKAMSPMMANPAQLIAQLVNENKIEPLKVLDISASHGLFGIAVAQHNPNAEIFGVDWASVLEVAKENARIQGVASRYHTIAGSAFEVDYGNDYDLVLLPNFLHHFDVATCEQLLRKIKTALAVEGKVIVFDFIPNSDRITPPDAAAFSLVMLATTPNGDAYTFAEYESMFSNAGFSHSQLHSLPTTQQQVIVAYK” the “soluble on expression in E. coli” value was “not soluble”.
With “MGSDKIHHHHHHMSTSYEISSLPWLSASHELLLKQVRLGSLSHGHLLDVHTQLGGDVLAQSMAKLILCQALTPVGACGQCKACLLVSAGTHPDLHSVAPDGNQIKVDQIRSLCSSLTSTAQQGGKRVAIIYQSERMNTASANALLKTLEEPGKETFLLLQTDRTAALLATVKSRCQTLSITPPSNAEVNAWLKGQQLLPVVPDGAKPHDVTWCLSVVGGPIQLAQSLQSDKYQTLLNYRKEWAMSLSSGHLCGSLLALKDNQLIDALQVLYLYLRHFVLKSNDINAFTKAQVITLAAKIMEMRHKLTTMAAVNTQALCMDYVLAFRQLTHTHR” the “soluble on expression in E. coli” value was “not soluble”.
For “MGSDKIHHHHHHMSTVSAQEAVSLREAAERRSQFARVPARSVSAPPRKKWFRSKQQLSGAADGMDGSSRAGSQEIVCDEFTKKLVAAITTWHDIHSSLLQLSIERSSNDSNEEHENVSVSSESSWSSASDSESDEDSATGRDSTNNHLSASAARFSISNPDLTNCQIKQMFPEMADHWR”, the “soluble on expression in E. coli” value was “not soluble”.
For “MGSDKIHHHHHHMSVLKATNSIEQRLQIQRLQAPTRVVTSTAGGDVVRGLTQTPKTLPPCYFYDDRGSELFERICELPEYYVTRTETAILQRFAGEIARITGACELVELGSGNSTKTRILLDAYQQLDYPLRYLPIDVCAGILESSAKQLLQDYPSLEVYALAGTYELALAQLTPKKLSSRMICFIGSTLGNLNLQECDVFLSQIRATLNVGEYFLLGVDLQKPKEILEPAYDDSQGVTAEFNLNMLEHLNRSFEGNFDTTQFKHWAFYNESEQRIEMHLKSERSQTVQLKSLNLTVNLAQGETILTEISRKFNLESIQQQLAAKGLIPVQTWTDVNQWFGLLLCQVQG”, the “soluble on expression in E. coli” value was “not soluble”.
In the case of “MGSDKIHHHHHHMSYLTSSRCKLFYEDTAEQNPSLKDKPAILFVNGWAISSRYWRPTIDLLRQDFRCVTYDQSGTGKTSIDGCQPDLTIGGFADEAGALIEHLGLDKSRNLHIVGHSMGGMVATELCLRYRDALLSATILACGIFEETPFTSLGLMFLGGLIDVSMNFRNMFRVEPLRTLFIKRAATGHISKEYSDIIIEDFTTSDKAATNAVGHFSIDPEALRTYTRSVIEIASPVLCCVGMADHTIPPEGTITLFEKRKASATSPTRLVQFMHLGHLPMLEDTPCFVEQLKKHFDFAEHFYKKTQPATPLADRVQIQ”, the “soluble on expression in E. coli” value is reported as “not soluble”.
In the case of “MGSDKIHHHHHHMSYQIEIGSIRCFVVAAEELHFRRAAIRLNMSQPTLSQQIKRLEELMGVQLFIRSTRRVDLTRAGASFLDHARDILLKIDEAILNAKLEAGGLSPGGEELIIGAISPATSQLLPLILSRFRQRFPRTRLAIKEVDSIELLRGIERGDFHVGLMRPPSNSNLVRFRHLLSERFVAVMPRQSALARKPALRLSDFAGHGVFALKRFELSCFETVYEQLSGAGLLIENDIAVSDTNTALALVTAGAGITFLPEWVSAMAPDGVVTRVVDDMSVEISMAVGWNPDCPVPGILPFVEFATLAAQNLISARK”, the “soluble on expression in E. coli” value is reported as “not soluble”.
In the case of “MGSDKIHHHHHHMTAPRELTAETRCGSSMDSSPPTATDDINSADIALRVSALSKTYRIYGRSQDRLLQGLWGNRKQLYREFRALDSISFEIRRGETFGIIGPNGSGKSTLLQLIAGTLTPTQGEIYIKGKVSALLELGAGFNGEFTGRENIRMAASIAGLNPGEIGQRHECIAAYADIGDFLDQPVKTYSSGMYVRLAFAVAISVEPEVLIIDEALAVGDMEFQAKCMVTLKQMQERGTTILFVSHDVGAVSALCKRTLYLKHGRALEIGPTPDVVARYIREVQEANNRKINVTVSENNDSRTTSPSDASETGIAPSHRTASLTSAEAASGAASGFLTAASPFRSVEKKHLARFAENANHCRSGTGDVRVIYAEMTDDEGLPVRSAEFGQSVLIRIIVEAARTCTFSVNYKICDKNRTPVIGADFLMQRQALLTLEPSQQAEALYRTSLPLTDGRYSLRISLTHPVNAHQQALFFDIVEIAHVFEVLPNPTAKFWTQVYLPNTLDVRVLE”, the “soluble on expression in E. coli” value is reported as “not soluble”.
For “MGSDKIHHHHHHMTAPSPEAWLYMLLQTARELELPWLDLIVDQAEMGARWQSRVGALYPPRMLLQDTPHAEAADEGPVLVRLDANQPQTRLLKLLRQWQGQPRVLALFSGWDYDQLAERLTLCMQASWDKGLQQGVLRFHDPRLFAAVVDALDEPRRQLLLEPAVQWHWLDRDGHARMLDATALQSLPPLEWVHDTLTLEQPHIDALACWHLAETWRQNHLLVPQLYGLDSEEELVRRLAQAHQAADKAKLWSEAERIPVVERMLRENA”, the “soluble on expression in E. coli” value was “not soluble”.
For “MGSDKIHHHHHHMTASTVRSPIKVQMRQTGYAARQQRAARMGGMLYQLHELTRNLLAPWVHQAQANAKMFSDPDSLWASLPGAERMAASNELFHRLGKEYEKPAWALDDVEVDGHSLPIIEREVLSKPFCRLLRFKRFSDHVELIGTMKQQPAVLVVAPLSGHHATLLRDTVRTLLRNHKVYVTDWVDARMVPLEAGAFRLEDYIAYIQEFIRHIGAERLHVVSVCQPTVPVLAAVSLMASNDEPTPRSLVMMGGPIDARRSPTQVNNLATENGIEWFQNNLIHTVPFPYPGHGRQVYPGFLQHAGFLSMNPNRHVMSHWDFYTDLVKGDLQDAQAHRQFYDEYNAVLDMPSEYYLDTIRVVFQEFLLPQGKWKVDGQLVMPSAIRNTALLSIEGELDDIAGLGQTEAVHDLCTGIDAAHRRHLVVEGAGHYGIFSGRRWREVVYPQVREFIARYDADPVGSRDPATVTPIRKRGKRA”, the “soluble on expression in E. coli” value was “not soluble”.
For “MGSDKIHHHHHHMTEDNNLGLEFKYLIVNDMDRKFGLWVNTVGYQSIPPDSPYPLKEHPSGYYFNAEKGRVLREYQLVYITKGRGLFSSDSTPERQVCKGRLMVLFPGQWHTYYPLRQTGWTEYYIGFEGPAIDTIVGDAFLSQERQILEVGINEELVSLFSRALEVAEADKISAQQYLSGIVLHMIGMILSISKNKVFEMSDVDQKIEQAKILMNENVSGNIDPEELAMRLNISYSWFRRVFKEYTGYAPAKYFQELKLRKAKQMLVGTSQSVKEISFFLGFQSTEYFFSFFKKRTGLTPLEYRSFGREE”, the “soluble on expression in E. coli” value was “not soluble”.
For “MGSDKIHHHHHHMTEITTLSQFLTTAKTQFQVYDLGRRVQHIDMLAFHQIESLSTPYPYPIQGHAQFAIVFWDASQQHFIWFLKLALDEQGLLSPAPRSQFIEMILAALGQDPTQPLSDEQQERLANNPFNFKPSQEKLAVFNALVRKQLGQRASSQYEFAVQYLSGQVAPAQWQHIGMQGIADVCARANEFDHEQQLVSSFDTAAIEVQIALCQCLEHLLISDTLADKILAKLQDAAPEHQAYFLRALASSAKHSQQAFEHLHGQASLDTNALISIAGRNWSVLKQDSSRSLYLEALALQPQAFFNQVFADIVAIPSLRNQLLGELRNPNRSVQLSQAIGGLFKAASK”, the “soluble on expression in E. coli” value was “not soluble”.
